Positions count from the first letter of the chain named.
Legend:
[1] = biological target: T1, yeast displayed EphA2 extracellular domain (EphA2 ECD, aa 25-534) (Homo sapiens (Human), UniProt P29317 25-534); test: phage recovery: 10^11 phage with 10^8 yeast cells, elution and titration
T1 construct: also called Y-EphA2; Y-EphA2 ECD

[2] = biological target: T1, yeast displayed EphA2 extracellular …; test: yeast displayed antigen incubated with 10^9 phage, titer of bound phage
[3] = biological target: T2, yeast displayed CD44 link domain (CD44 ECD domain 1, aa 21-169) (Homo sapiens (Human), UniProt P16070 21-169); test: yeast displayed antigen incubated with 10^9 phage, titer of bound phage (mismatched pair)
T2 construct: also called Y-CD44 D1; Y-CD44 ECD D1

[4] = biological target: T3, EphA2 on the surface of MDAMB231 cells (native EphA2) (human, UniProt P29317 24-976); test: flow cytometry of phage antibody on MDAMB231 cells
T3 construct: whole, on cells; from NP40 cell extracts in the immunoprecipitation; also called native antigen; receptor from cell extracts of MDAMB231 cells

[5] = biological target: T1, yeast displayed EphA2 extracellular …; test: flow cytometry of monoclonal phage antibody on yeast displayed EphA2 ECD
[6] = biological target: T2, yeast displayed CD44 link domain (CD44 …); test: flow cytometry of monoclonal phage antibody on yeast displayed CD44 domain 1
[7] = biological target: T3, EphA2 on the surface of MDAMB231 cells …; test: flow cytometry competition on MDAMB231 cells; competitors: phage antibodies D2-1A7 and D2-1A9
[8] = biological target: T2, yeast displayed CD44 link domain (CD44 …); test: fd phage antibody selected on yeast displayed antigen; screened by flow cytometry as in Examples 4 and 5
[9] = biological target: T1, yeast displayed EphA2 extracellular …; test: as above
[10] = biological target: T1, yeast displayed EphA2 extracellular …; test: phagemid antibody selected on yeast displayed antigen; screened by flow cytometry as in Examples 4 and 5

T1 sequence (P29317 25-534 limits assumed): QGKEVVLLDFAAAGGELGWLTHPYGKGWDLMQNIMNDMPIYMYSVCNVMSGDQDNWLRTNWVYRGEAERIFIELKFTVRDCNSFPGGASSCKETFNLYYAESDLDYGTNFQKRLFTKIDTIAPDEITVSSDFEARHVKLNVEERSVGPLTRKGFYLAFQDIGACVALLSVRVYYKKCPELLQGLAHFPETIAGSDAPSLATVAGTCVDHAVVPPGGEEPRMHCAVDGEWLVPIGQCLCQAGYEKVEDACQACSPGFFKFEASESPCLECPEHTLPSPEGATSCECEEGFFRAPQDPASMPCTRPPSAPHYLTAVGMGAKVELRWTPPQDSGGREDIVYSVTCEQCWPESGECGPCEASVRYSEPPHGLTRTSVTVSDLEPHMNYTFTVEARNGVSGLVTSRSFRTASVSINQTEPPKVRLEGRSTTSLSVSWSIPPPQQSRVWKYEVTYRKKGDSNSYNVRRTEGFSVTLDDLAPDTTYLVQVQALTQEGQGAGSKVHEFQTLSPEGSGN
T2 sequence (P16070 21-169 limits assumed): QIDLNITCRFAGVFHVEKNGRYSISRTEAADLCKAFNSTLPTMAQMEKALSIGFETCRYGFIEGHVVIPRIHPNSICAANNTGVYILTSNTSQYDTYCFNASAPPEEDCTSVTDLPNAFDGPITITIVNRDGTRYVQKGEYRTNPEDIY
T3 sequence (P29317 24-976): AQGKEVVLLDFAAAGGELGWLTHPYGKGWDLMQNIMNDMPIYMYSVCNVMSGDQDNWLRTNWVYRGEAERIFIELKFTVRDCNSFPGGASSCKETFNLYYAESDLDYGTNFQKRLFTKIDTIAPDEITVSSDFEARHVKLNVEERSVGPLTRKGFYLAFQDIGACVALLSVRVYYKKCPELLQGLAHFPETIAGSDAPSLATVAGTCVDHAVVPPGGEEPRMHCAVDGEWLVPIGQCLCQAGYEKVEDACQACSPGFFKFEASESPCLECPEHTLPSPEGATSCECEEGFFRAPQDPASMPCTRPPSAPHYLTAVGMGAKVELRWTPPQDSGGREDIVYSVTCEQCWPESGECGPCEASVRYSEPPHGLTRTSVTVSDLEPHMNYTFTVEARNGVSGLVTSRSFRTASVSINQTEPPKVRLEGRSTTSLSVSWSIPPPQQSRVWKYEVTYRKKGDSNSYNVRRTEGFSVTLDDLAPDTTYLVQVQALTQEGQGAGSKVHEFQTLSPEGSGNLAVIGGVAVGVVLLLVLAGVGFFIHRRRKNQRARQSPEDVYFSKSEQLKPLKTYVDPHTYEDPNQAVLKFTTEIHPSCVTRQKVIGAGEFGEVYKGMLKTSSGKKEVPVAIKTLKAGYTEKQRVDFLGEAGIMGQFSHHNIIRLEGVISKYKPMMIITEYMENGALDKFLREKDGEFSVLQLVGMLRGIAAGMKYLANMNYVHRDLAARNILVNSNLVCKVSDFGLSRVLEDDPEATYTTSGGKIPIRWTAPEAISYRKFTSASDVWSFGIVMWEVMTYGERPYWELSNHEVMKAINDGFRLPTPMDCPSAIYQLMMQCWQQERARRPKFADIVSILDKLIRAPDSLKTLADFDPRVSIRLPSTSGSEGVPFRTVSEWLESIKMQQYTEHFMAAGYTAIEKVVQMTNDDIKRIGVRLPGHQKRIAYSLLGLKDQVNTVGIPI

B1: anti-EphA2 human scFv 2D6 (scFv, V domains shown)
VH: QVQLQESGGGLVQPGGSLRLSCAASGFTFSSYAMSWVRQAPGKGLDWVSIIYNGDNTYYADSVKGRFTISRDNSKNSLYLQMNSLRAEDTAVYYCARWSGTSYDYWGQGTLVTVSS
VL: SELTQDPAVSVALGQTVRITCQGDSLRSYYASWYQQKPGQAPLLVIYGENNRPSGIPDRFSGSSSGNTASLTITGAQAEDEADYYCHSRDSSGTHLRVFGGGTKVTVLG
notes: scFv; soluble scFv with C-terminal (His)6 tag (pUC119mycHis) in the immunoprecipitation; also called anti-EphA2 phage antibody 2D6; PhAb-EphA2
fold recovery of phage against recovery from yeast displaying an irrelevant scFv (Y-CON) [1]: > 10000 fold | PhAb Output/Input [2]: 0.06 ratio of output/input phage | PhAb Output/Input [3]: 1e-06 ratio of output/input phage

B2: anti-EphA2 human scFv D2-1A7 (scFv, V domains shown)
VH: QVQLQQSGGGVVQPGRSLRLSCAASGFTFSSYAMHWVRQAPGKGLEWVAVISYDGSNKYYADSVKGRFTISRDNSKNTLYLQMNSLRAEDTAVYYCARASVGATGPFDIWGQGTMVTVSS
VL: B1 VL with R18S, H87N, R97T, V105L
notes: soluble scFv with C-terminal (His)6 tag in the immunoprecipitation; also called anti-EphA2 phage D2-1A7
binding result [4]: binds | binding result [5]: binds

B3: anti-EphA2 human scFv D2-1A9 (scFv, V domains shown)
VH: QVQLVESGGGLIQPGGSLKLSCAASGFTVSNSYMSWVRQAPGKGLEWVAVIYSAGNTYYADSVKGRFTISRDTSNNTVHLQMNSLRPEDTAVYYCAREGSFGYDYRGQGTLVTVSS
VL: DIVMTQSPGTLSLSPGERATLSCRASQSVSSSFLGWYQQKPGQAPRLLIYGASSRATGIPDRFSGSGSGTDFTLTISRLEPEDFAVYYCQQYGISPLTFGGGTKVEIKR
notes: also called anti-EphA2 phage D2-1A9
binding result [4]: binds | binding result [5]: binds

B4: anti-EphA2 human scFv D2-1B1 (scFv, V domains shown)
VH: QVQLQESGGGVVQPGRSLRLSCAASGFTFSSYGMHWVRQAPGKGLEWVAVISYDGSNKYYADSVKGRFTISRDNSKNTLYLQMNSLRAEDTAVYYCAKVIAGGAYYGSADYWGQGTLVTVSS
VL: B1 VL with R18K, S28T, L43V, N51S, V105L
binding result [4]: binds | binding result [5]: binds

B5: anti-CD44 human scFv F2-1A6 (scFv, V domains shown)
VH: QVQLVQSGAEVKKPGESLKISCKGSGYSFTSYWIGWVRQMPGKGLEWMGIIYPGDSDTRYSPSFQGQVTISADKSISTAYLQWSSLKASDTAMYYCARRLHGPFYFDYWGQGTLVTVSS
VL: SELTQDPAVSVALGQTVRITCQGDSLRSYYASWYQQKPGQAPLLVIYGKNIRPSGIPDRFSGSSSGNTASLTITGAQAEDEADYYCNSRDSSGNHVVFGGGTKLTVLG
notes: soluble scFv with C-terminal (His)6 tag in the immunoprecipitation; also called anti-CD44 phage F2-1A6
binding result [6]: binds

B6: recombinant mouse Ephrin A1 with human Fc fusion protein (R&D Systems) (Fc fusion, UniProt P52793 19-182, looked up)
chain: DRHIVFWNSSNPKFREEDYTVHVQLNDYLDIICPHYEDDSVADAAMERYTLYMVEHQEYVACQPQSKDQVRWNCNRPSAKHGPEKLSEKFQRFTPFILGKEFKEGHSYYYISKPIYHQESQCLKLKVTVNGKITHNPQAHVNPQEKRLQADDPEVQVLHSIGYS
notes: Bought reagent; also called rEphrinA1-human Fc fusion protein; not shown: human Fc
fold difference between the IC50 of ephrin A1 against D2-1A7 and against D2-1A9 [7]: 9 fold

B7: E8H7 (scFv)
scFv: QVQLQESGGGLVQPGGSLRLSCSASGFTFSSYAMHWVRQAPGKGLEYVSAISSNGGSTYYADSVKGRFTISRDNSKNTLYLQMSSLRAEDTAVYYCVARLEWLPLAWDYWGQGTLVTVSSGGGGSGGGGSGGGGSSELTQDPAVSVALGQTVRITCQGDSLRSYYASWYQQKPGQAPVLVIYGKNNRPSGIPDRFSGSSSGNTASLTITGAQAEDEADYYCNSRDSSGNHKVFGGGTKLTVLG
notes: also called fd phage antibody E8H7
binding result [8]: binds

B8: E8F11 (scFv)
scFv: QVQLQQSGGGLVQPGGSLRLSCAASGFTFSSYAMSWVRQAPVKGLEWVSAISGSGGSTYYADSVKGRFTISRDNSKNTLYLQMNSLRIEDTAVYYCGRHLSSGSSVDYWGQGTLVTVSSGGGGSGGGGSGGGGSSELTQPPSASGSPGQSVTISCTGTSSDVGGYNYVSWYQQRPGYAPKLMIYDVSNRPSGVSNRFSGSKSGNSASLDISGLQSEDEADYYCAAWDDSLREFLFGTGTKVTVLG
notes: also called fd phage antibody E8F11
binding result [8]: binds

B9: A3H9 (scFv)
scFv: QVLLVESGGGVVQAGASLRVSCAASGFSLTSYGMHWVRQAPGKGLEWVAFISSDGSDKYYVDSVKGRFTISRDTSKNMMYLQMNSLTTEDTAVYYCAKDWGSNWYLFDYWGQGTLVTVSSGGGGSGGGGSGGGGSQSVLTQPPSASETPGQRVTISCSGSSSNIGANTVHWYQQFPGTAPKLLIYSYSQRPSGVPDRFSDSKSGTSASLAISGLQSEDEADYYCAAWDDILNGWVFGGGTKVTVLG
notes: also called fd phage antibody A3H9
binding result [9]: binds

B10: 1A12 (scFv)
scFv: QVQLQESGGGLVQPGGFLRLSCAASGFTFSSYGMHWVRQTPGKGLEWVSYISSSSSYTNYADSVKGRFTISRDNSKNTLYLQMNSLRAEDTAVYYCARDNWYFDLWGRGTLVTVSSGGGGSGGGGSGGGGSDVVMTQSPSTLSASVGDRVSITCRASESISRWLAWYQQKPGKAPKALIYKASSLESGVPSRFSGSGSATEFTLTINSLQPDDFATYYCQQYSSYPLTFGQGTKVDIKR
notes: also called phagemid antibody 1A12
binding result [10]: binds

— patent US20130209481A1 (University of California, published 2013)
